How the values were obtained:
MPP8 50-118 = MPP8 50-118 (UniProt Q99549); assay: fluorescence polarization titration; details: reference: H3K9me3 peptide; sites S10
UHRF1 126-280 [1] = molecular target: UHRF1 126-280 (UniProt Q96T88); assay: histone peptide microarray; details: sites S10
UHRF1 126-280 [2] = molecular target: UHRF1 126-280 (UniProt Q96T88); assay: biotin-peptide streptavidin pulldown, western blot; details: sites S10
[3] = molecular target: T1, UHRF1 tandem Tudor domain (TTD), residues 126-280 (human, UniProt Q96T88 126-280); assay: NMR titration
T1 sequence (looked up): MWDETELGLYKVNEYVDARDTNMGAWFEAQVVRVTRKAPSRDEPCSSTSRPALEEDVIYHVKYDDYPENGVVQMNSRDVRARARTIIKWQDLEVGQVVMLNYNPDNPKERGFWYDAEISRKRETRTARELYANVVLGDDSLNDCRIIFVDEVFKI

Question: “histone H3 1-20 (from UniProt P68431) H3K9me3S10p peptide” was tested. Which KD (MPP8 50-118) did it give?
Answer: lost; reference 0.23

Question: What does the source list for “histone H3 (from UniProt P68431) H3K9me2S10p peptide”?
Answer: binding against the reference (UHRF1 126-280 [1]; reference: H3K9me2 peptide): same; binding against the reference (UHRF1 126-280 [2]; reference: H3K9me2 peptide): same

Question: Which results are given for “histone H3 (from UniProt P68431) H3K9me3S10p peptide”?
Answer: binding against the reference (UHRF1 126-280 [1]; reference: H3K9me3 peptide): same; binding against the reference (UHRF1 126-280 [2]; reference: H3K9me3 peptide): same

Question: Does ARTKQTARKST (not fully specified; trimethyl-lysine at 9; phosphoserine at 10) [doubly modified H3 peptide (residues 1-11, ARTKQTARKme3SpT)] bind [3]?
Answer: binds

Reference: PMC3492551 (Nature structural & molecular biology, 2012)
